± gives the uncertainty stated by the source.
Test: amyloid nucleation score (Sup35N fusion, yeast selection) (log enrichment); library NNK2; higher = more nucleation; inactive = no reads after selection
In short: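 Growth for 7 days at 30°C on medium lacking adenine and uracil followed a 24-hour induction with 100 μM copper sulfate of psi-negative yeast expressing peptides of 20 random codons fused to Sup35N. Input and output plasmid inserts were sequenced with Illumina, and sequences with under 100 input reads were excluded. Nucleation score is the DiMSum log enrichment of output over input reads, centred on the mode score of non-aggregating sequences.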

Substance	amyloid nucleation score
MRRRMQSWANRSLSTGWGMF	-0.091 ± 0.38
MRRSLFMCILVYDSWLYFSV	3.15 ± 0.17
MRSFGPIFSVLL	-0.067 ± 0.34
MRSRNLLS	inactive
MRSTALYDILRRPWFNFSAY	-0.014 ± 0.76
MRWSYFDH	0.921 ± 0.47
MSFKDNYQPK	-0.707 ± 0.76
MSILESIRTRTRRVKGYLSC	0.315 ± 0.36
MSILTCVPGTNIINSQW	inactive
MSLILRSPLKTWLPLAHTQG	0.187 ± 0.42
MSLLV	5.695 ± 0.029
MSLWRVCCFSWPKKVYSNFR	1.2 ± 0.1
MSPWRDRSRFKIYDGPTWRM	0.728 ± 0.8
MSPYL	0.479 ± 0.8
MSSINTRPRNDA	-0.645 ± 0.37
MSSQKWADKVPWEFVCGCFD	0.01 ± 0.65
MSVLSMVFSGFDPMERFGEL	0.294 ± 0.8
MSYGNAYNTPKCDKHSVIPY	0.738 ± 0.37
MTCSSHCGMCIPSIPQVFGA	1.02 ± 0.4
MTDLLTMVAYRLKGSRVSSM	0.08 ± 0.37
MTFENFSSSHSWTDLLFLFI	3.43 ± 0.078
MTGNVYKMIILIYNFFRRS	2.7 ± 0.069
MTQPEGY	0.325 ± 0.56
MTRVTYMYVFIYACESRYTH	-0.116 ± 0.22
MTSRVETSKCNCSLQVWRPL	0.579 ± 0.37

Substance	amyloid nucleation score
MVFAPIVYEIKRDIKMLFGA	5.947 ± 0.029
MVFRNNYSEVTTRLAGNGRR	-0.074 ± 1.1
MVINSAWVCENGLSQYFLAK	4.27 ± 0.075
MVINSFPPGWVRGHMIKSTG	-0.39 ± 0.76
MVIQHIDRPDYWISWGHNKG	5.112 ± 0.048
MVKLFSLSTS	-0.533 ± 0.2
MVLIYRLCQSLRLRHGVGVK	4.33 ± 0.1
MVLLCIFQ	8.273 ± 0.064
MVLLLQASSI	-0.354 ± 0.54
MVPKNFYFRRWLSWLRVRLL	0.144 ± 0.52
MVVGIAVYRCSFNRTDLFPS	0.655 ± 0.2
MVVLCHINLYEYGSFNPSST	6.31 ± 0.077
MVWAQSTASMVLDLVFIAPS	1.75 ± 0.29
MVYPRYVSDTKQSRLLAGRE	0.604 ± 0.57
MWVPFASWLCK	-0.08 ± 0.5
MYLVYHYLSVRAFLFMSTMV	-0.39 ± 0.61
MYRRSSWHLWWSKELFDAIY	-0.723 ± 0.79
MYSVMLRTSYCTLARYMVLW	1.08 ± 0.11
NACYIDFGRTAVSTVLAILY	3.41 ± 0.09
NADQLLIGELQLTLGLWPIR	1.14 ± 0.16
NAQSRVLAEETGLSNPPIML	-1.45 ± 0.62
NARVTGVF	inactive
NCFRVFNSFSIFGAFRTMDR	5.22 ± 0.064
NCFSSRGGARTFGIKLIFSV	0.524 ± 0.51
NCFYALYPSQDWRMTKLELS	-0.106 ± 0.23

Substance	amyloid nucleation score
NCGLWNISMCPGDNLSSWDG	7.46 ± 0.039
NCKMVMIGCDRNYL	-1.37 ± 1.1
NCVNPDYGLLQQLSRYLVVC	-0.764 ± 0.64
NCYSRALYSPCSPFLLTN	-1.73 ± 0.41
NDCGSNDRLSNTFFWFLLFG	0.142 ± 0.65
NDDTDQLSTSSIGRRMRMR	0.662 ± 0.81
NDIMYSVSSYCWWSFRSSVF	2.06 ± 0.15
NDMFLSYLHSPWYNVLCDFI	-1.29 ± 0.49
NDMVRAISRKGIVSIHRRTR	0.724 ± 0.45
NDTSYGAQRRVCSTFQGCVT	0.211 ± 0.32
NDVGSLWVIADVGIFYVQDK	-0.662 ± 0.61
NDWFCVVY	-1.48 ± 0.42
NEFRDIYGFSVSKLPTGGIC	-1.17 ± 0.41
NEYMYVR	0.969 ± 0.52
NFAQWW	0.443 ± 0.8
NFFRAENVYCSMLFSKGWDW	6.966 ± 0.049
NFIKKGCGKGNLDLFSLRDV	inactive
NFILLDLLSLAICASRVLWA	1.56 ± 0.087
NFLGGLNRFLNCSSM	-0.683 ± 1.1
NFMGIIVLNQ	3.19 ± 0.09
NFNACIPNKDRSFSNVDVCV	-1.35 ± 1
NFRPCRVLRFGY	1.03 ± 0.66
NFVYMFVKL	4.97 ± 0.062
NFYILLATGSFYAVLGCRQY	2.36 ± 0.12
NGCSFRGNCCDSGERNVVEV	0.071 ± 0.6

Substance	amyloid nucleation score
NGDLCILLTWATWGSTE	0.686 ± 0.33
NGFMVSFV	-1.39 ± 0.41
NGFNYFKMW	-1.65 ± 1.1
NGGPRAYLDIYDLSGVSDRR	0.487 ± 0.18
NGIQGL	inactive
NGMFLRTRCIRVFAVRRMLQ	1.12 ± 0.26
NGTKTP	0.568 ± 0.47
NGTSLTMTYIRKLAFRGLEK	0.215 ± 0.26
NGVKEYLGNTSWKCTNRA	-0.137 ± 0.5
NGVQKVVCQGTRLGCVLGLD	0.131 ± 0.45
NGYRG	0.376 ± 0.53
NHAQMDMKTHVINRLCKE	0.605 ± 0.57
NHLIV	-1.09 ± 0.3
NHMLL	-0.313 ± 0.76
NHSGRYGRRLILRLGFFGVG	-0.655 ± 0.28
NIEVWMFYSLMNMNEA	-0.509 ± 1.1
NIFMWSSTEIHCRWKVFLRL	-0.949 ± 0.44
NIMSFFHLSLGVDFVHVSPG	0.144 ± 0.19
NIQDLARSLDRDWTYIGIES	3.65 ± 0.079
NIRKMSGFVNSYTAYSQGEL	inactive
NISCNSGSPGSNMTGCQESS	0.767 ± 0.8
NISHVVNLHAWLYRLL	3.39 ± 0.13
NISMTTWW	4.71 ± 0.11
NIVVVYIEFSGVHPTLVLLW	-0.42 ± 0.3
NKFKG	0.19 ± 1.1

Substance	amyloid nucleation score
NKLTVPYTVDVNDTILDRGK	-0.015 ± 0.46
NKSSLRVCRPLSWNMSMVSN	0.593 ± 0.44
NKVMGAEGCTGLEL	-0.744 ± 0.28
NKYYLSNLMTCLAQKLSSSG	0.053 ± 1.1
NLCSGTIVVFIGCMKAAWFV	4.39 ± 0.045
NLDGCTVIS	0.774 ± 0.51
NLFYKKSLRLCYGLLQLRDF	inactive
NLGGRFCAGFRRNHTCLGRN	-0.458 ± 0.33
NLLTPFRLRPKTHLDLYRSC	-0.196 ± 1.1
NLSNELSCI	inactive
NLSVHAENLDNNRSGAEV	-0.102 ± 0.76
NLSWLVNWMEYVRGRLW	-0.56 ± 0.4
NLSYDHPACCKWNRCYVKHR	1.81 ± 0.14
NLVVCGNISGCLCYDYSFGK	8.187 ± 0.032
NLYMPDS	0.395 ± 0.8
NMFLFLCVRVCGVAFDKGKV	2.28 ± 0.13
NMFVSSRSM	0.585 ± 0.8
NMLYHYIDRSCRGAMDHHGR	inactive
NMPEFC	0.283 ± 0.21
NNCVQTGSGGGGRCLRDTCG	3.8 ± 0.085
NNLATPRQRVWLQVTLPARP	0.692 ± 0.21
NNNFMRTR	2.44 ± 0.066
NNQYINWMRKCG	-0.671 ± 0.41
NNWYILPFAGFWDFGA	5.341 ± 0.03
NPEDPQSMLLVVGCVEKN	0.214 ± 0.54

Substance	amyloid nucleation score
NPGETDQRQSWSCSDCPAFS	1.51 ± 0.35
NPLHP	0.116 ± 0.24
NPTYYRARGE	2.96 ± 0.11
NQLKGYTIYWVL	4.45 ± 0.063
NQLLTVSWYSL	2.76 ± 0.091
NQRVLLLLKSVLYMMVAK	inactive
NQTCTE	0.7 ± 0.66
NRCFEGFAVARFDAGRV	-0.378 ± 1
NRDVFWRFLVTTVVYELSSK	inactive
NRDVRCGVRPQHVCFQ	inactive
NRFAHNALVAL	4.08 ± 0.062
NRFQYGCNSGSMTVWGALWF	0.706 ± 0.81
NRILWSPNEKLLKHVTQVTL	-0.795 ± 0.61
NRKSSHYSKNCRTLLHTS	-0.097 ± 1.1
NRKTSGLYVFRWRKRPR	0.264 ± 0.4
NRLDNFRHQTEGKRRV	-0.841 ± 1.1
NRNKAASYNGLYCFDPAIVD	-1.09 ± 0.55
NRNPYILGYLRPPEVDYWWW	-0.627 ± 1.1
NRQLWYPSINKYFFKSADPL	inactive
NRRGANCVQS	-0.372 ± 0.39
NRRYLKPSGPEEGWMMLSGT	1.03 ± 0.35
NRTAFPCFLA	-0.473 ± 0.49
NSAPRGQCRSVFGLMYSYSI	inactive
NSDCEVPFTWFVMLIGAPGG	-0.393 ± 0.76
NSDISARCGSCVYLWYVSDD	8.712 ± 0.048

Substance	amyloid nucleation score
NSFVAIKCIV	-0.023 ± 0.33
NSGSGAAFGVSLHVVNCARS	0.045 ± 0.79
NSGSYTSSFNDLVDTLSVLS	inactive
NSIGV	-1.02 ± 0.55
NSKGN	0.112 ± 1.1
NSNFRLTCTFSSMHYKLARG	2.9 ± 0.21
NSNGEFIKGACHMVRLFGLQ	0.098 ± 1
NSPMSKSLNRT	0.347 ± 0.22
NSRLEVGSNSKQDLMAMSKT	-1.12 ± 0.74
NSSRGQPHLSNFPIRHHHVN	0.461 ± 0.66
NSVETLMNQRCWVCHTCCVK	-0.472 ± 0.64
NSVRNTYWKAPGNLTEGVSG	-0.054 ± 0.4
NTAVSYFNHKSVAFFYFCDL	4.94 ± 0.064
NTEKSIVVRDMIKDSYPFSV	inactive
NTFQSKDRGQWCSTRNAYKG	-0.772 ± 0.45
NTHFFVMRVEFGPWYTSSCS	2.42 ± 0.21
NTLLILHIDICYVYSVILTF	-0.942 ± 0.76
NTLVMRWCRGCQWKEQLASN	1.1 ± 0.41
NTRGWDAGS	1.08 ± 0.28
NTVFLLSFGCCEYYRFWGYL	8.34 ± 0.057
NTYLSMEFLLTP	inactive
NVDWCCQICSCFTRIFELLM	2.21 ± 0.23

Reference: the supplement of paper PMC12042874
